We go through one molecule from patent publication US20120270800A1 (published 2012).

Positions of bridges follow the written chain, without caps; N, C: chain ends. Non-standard residues stand in square brackets, D forms with d. No end group written: not given here. S5 = C=CCCC[C@](C)(N)C(=O)O; βAla = NCCC(=O)O

This assay has as its target mSin3. As to the kind of experiment: fluorescence polarization. (In general: Fluorescence polarisation rises when a labelled molecule tumbles more slowly, as on binding a larger partner.)

For orientation: Kd means the concentration at which binding is half-saturated. The low end stands for higher affinity, the high end for lower affinity. [βAla]VRRRI[S5]MLL[S5]AANYLER (staple 7-11; also: FITC-conjugated in the assay, site not given here) [SID2] displayed a Kd of 12 nM.
